Results: patent publication US20240392262A1, “TRANSPOSASE AND USES THEREOF” (Poseida Therapeutics, Inc., published 2024)

T1: PAH4 Left TAL-PBx (synthetic construct)
T1 chain: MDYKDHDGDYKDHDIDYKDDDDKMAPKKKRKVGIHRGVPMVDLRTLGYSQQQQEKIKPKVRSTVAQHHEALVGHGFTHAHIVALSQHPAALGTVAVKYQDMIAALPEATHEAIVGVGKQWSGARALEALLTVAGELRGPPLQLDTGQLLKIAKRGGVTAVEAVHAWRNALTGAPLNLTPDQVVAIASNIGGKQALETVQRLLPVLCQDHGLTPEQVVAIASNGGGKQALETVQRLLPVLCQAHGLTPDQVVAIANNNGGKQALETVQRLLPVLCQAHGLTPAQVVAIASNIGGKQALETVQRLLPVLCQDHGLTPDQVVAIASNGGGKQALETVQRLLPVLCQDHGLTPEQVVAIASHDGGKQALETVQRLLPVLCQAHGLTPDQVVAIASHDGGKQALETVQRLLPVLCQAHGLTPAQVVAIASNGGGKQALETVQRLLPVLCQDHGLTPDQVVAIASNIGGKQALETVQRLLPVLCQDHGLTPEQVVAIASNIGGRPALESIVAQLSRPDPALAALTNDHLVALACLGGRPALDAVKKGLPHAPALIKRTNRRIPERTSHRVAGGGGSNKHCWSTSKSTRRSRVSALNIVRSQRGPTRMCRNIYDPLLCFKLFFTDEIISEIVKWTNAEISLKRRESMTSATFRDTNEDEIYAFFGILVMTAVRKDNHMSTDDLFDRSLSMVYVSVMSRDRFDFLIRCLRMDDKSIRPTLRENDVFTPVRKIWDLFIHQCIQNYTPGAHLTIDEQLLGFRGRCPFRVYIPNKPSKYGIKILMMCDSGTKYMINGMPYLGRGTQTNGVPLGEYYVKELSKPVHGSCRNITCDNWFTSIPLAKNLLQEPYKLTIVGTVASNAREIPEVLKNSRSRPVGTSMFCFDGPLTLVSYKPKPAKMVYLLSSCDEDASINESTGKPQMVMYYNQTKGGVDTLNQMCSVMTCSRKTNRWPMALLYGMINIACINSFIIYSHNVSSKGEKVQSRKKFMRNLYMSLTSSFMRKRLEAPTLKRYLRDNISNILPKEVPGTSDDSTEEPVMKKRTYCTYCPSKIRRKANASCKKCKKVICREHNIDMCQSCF

T2: PAH4 Right TAL-PBx (synthetic construct)
T2 chain: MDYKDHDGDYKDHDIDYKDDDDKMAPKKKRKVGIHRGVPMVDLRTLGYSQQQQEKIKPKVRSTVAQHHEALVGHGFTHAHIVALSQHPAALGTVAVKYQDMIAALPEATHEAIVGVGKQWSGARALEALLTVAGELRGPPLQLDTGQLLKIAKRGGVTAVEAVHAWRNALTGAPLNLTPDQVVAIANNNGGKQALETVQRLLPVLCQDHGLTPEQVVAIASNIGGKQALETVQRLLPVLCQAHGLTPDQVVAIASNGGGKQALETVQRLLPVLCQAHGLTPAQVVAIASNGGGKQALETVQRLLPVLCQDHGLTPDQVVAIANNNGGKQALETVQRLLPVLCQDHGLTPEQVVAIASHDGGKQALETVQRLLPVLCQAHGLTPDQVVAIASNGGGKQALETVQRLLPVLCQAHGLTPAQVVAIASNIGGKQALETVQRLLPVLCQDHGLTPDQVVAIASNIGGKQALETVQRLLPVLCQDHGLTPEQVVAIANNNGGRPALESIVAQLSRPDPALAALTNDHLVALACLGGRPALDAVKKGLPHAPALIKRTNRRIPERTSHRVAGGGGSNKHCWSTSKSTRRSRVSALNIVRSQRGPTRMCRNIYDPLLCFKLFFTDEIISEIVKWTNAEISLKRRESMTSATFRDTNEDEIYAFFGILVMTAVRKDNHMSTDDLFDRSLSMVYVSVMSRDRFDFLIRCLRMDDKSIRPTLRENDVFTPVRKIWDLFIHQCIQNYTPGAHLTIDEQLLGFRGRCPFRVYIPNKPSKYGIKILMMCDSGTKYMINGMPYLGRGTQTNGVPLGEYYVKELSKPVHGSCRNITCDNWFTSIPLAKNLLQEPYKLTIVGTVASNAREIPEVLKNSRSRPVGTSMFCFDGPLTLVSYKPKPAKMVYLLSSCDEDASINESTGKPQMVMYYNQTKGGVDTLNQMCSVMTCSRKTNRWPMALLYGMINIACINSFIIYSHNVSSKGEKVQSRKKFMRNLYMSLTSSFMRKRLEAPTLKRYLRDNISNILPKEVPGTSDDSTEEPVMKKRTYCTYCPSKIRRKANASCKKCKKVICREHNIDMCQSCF

T3: PAH5 Left TAL-PBx (synthetic construct)
T3 chain: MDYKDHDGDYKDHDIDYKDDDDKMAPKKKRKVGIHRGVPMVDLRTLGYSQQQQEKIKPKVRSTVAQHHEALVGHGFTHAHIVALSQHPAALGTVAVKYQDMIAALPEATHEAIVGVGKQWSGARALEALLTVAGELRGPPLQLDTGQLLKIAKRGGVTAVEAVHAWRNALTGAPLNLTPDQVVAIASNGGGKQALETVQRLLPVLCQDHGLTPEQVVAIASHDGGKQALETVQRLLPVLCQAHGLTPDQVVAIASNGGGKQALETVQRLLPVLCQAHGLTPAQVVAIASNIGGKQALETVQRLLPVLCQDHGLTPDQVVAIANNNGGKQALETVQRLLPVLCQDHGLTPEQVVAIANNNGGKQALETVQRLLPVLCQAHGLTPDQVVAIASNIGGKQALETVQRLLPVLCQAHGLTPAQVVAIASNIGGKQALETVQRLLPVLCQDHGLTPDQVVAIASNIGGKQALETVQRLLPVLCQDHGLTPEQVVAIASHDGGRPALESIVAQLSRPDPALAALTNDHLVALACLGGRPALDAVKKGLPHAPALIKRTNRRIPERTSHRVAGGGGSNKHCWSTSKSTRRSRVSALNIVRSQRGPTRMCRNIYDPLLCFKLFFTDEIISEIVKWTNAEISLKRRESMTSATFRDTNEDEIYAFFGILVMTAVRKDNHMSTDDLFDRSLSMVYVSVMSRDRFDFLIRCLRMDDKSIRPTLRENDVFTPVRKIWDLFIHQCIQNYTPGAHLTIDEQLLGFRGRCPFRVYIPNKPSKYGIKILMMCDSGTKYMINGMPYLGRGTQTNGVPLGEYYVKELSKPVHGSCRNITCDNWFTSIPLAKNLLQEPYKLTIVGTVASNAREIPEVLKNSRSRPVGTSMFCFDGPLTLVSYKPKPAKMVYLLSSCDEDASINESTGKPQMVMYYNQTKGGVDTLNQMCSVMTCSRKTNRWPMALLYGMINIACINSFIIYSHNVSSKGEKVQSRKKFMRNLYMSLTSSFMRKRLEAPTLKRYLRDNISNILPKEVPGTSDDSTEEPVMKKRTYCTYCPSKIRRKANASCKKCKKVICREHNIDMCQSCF

T4: PAH5 Right TAL-PBx (synthetic construct)
T4 chain: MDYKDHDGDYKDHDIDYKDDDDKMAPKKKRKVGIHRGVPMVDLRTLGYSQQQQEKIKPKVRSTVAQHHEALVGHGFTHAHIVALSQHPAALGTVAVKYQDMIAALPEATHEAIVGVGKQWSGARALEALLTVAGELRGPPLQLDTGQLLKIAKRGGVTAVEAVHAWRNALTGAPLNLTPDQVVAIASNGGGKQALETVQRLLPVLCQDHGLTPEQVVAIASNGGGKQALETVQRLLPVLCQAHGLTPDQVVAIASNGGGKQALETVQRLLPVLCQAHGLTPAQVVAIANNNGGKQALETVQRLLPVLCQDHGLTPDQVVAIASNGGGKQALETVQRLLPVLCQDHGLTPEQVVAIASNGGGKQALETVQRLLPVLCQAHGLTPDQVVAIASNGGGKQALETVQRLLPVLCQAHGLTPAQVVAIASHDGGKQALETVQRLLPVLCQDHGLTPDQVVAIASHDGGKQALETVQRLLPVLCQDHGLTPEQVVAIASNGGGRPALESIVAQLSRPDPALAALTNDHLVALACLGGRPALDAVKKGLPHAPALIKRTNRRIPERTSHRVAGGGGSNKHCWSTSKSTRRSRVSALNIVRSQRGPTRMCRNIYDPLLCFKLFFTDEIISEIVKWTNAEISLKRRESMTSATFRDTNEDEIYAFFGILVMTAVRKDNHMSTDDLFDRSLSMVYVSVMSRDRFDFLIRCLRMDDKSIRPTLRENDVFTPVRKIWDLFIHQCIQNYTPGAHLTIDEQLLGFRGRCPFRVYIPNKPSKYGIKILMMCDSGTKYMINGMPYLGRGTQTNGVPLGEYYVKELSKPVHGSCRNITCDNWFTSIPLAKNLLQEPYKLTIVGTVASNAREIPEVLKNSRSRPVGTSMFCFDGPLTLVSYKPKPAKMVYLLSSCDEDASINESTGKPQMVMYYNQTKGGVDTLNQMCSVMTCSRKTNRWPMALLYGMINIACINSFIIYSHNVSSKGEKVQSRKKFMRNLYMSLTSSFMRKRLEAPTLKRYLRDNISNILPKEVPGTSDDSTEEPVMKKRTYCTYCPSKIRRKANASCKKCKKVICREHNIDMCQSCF

B1: PAH4 target (dsDNA)
DNA 1: TATGATCCTAATCAGGCTTGTAAATTAACTTTTGAGGCTCTCTTAGCAATCA
DNA 2: TGATTGCTAAGAGAGCCTCAAAAGTTAATTTACAAGCCTGATTAGGATCATA
B2: PAH5 target (dsDNA)
DNA 1: TTCTAGGAAACTTGAACTATGATTTTAAAAAAAGAGAAAGAAGGAAACAAAA
DNA 2: TTTTGTTTCCTTCTTTCTCTTTTTTTAAAATCATAGTTCAAGTTTCCTAGAA

Columns and labels:
Settings in all cases: tags: 3xFlag, SV40 NLS
PAH4 Left TAL-PBx = target: T1, PAH4 Left TAL-PBx; assay: cell_activity; left only
PAH4 Right TAL-PBx = target: T2, PAH4 Right TAL-PBx; assay: cell_activity; right only
PAH5 Left TAL-PBx = target: T3, PAH5 Left TAL-PBx; assay: cell_activity; left only
PAH5 Right TAL-PBx = target: T4, PAH5 Right TAL-PBx; assay: cell_activity; right only

Row | Binder | activity (PAH4 Left TAL-PBx) [% GFP+] | activity (PAH4 Right TAL-PBx) [% GFP+] | activity (PAH5 Left TAL-PBx) [% GFP+] | activity (PAH5 Right TAL-PBx) [% GFP+]
1 | B1 | 3.6 | 2.9 | – | –
2 | B2 | – | – | 3.6 | 3.9
